{"source": "patent US20130095480A1", "about": "(BOARD OF TRUSTEES OF THE UNIVERSITY OF ARKANSAS, published 2013)", "molecular_target": "T1, Chondroitin Sulfate Proteoglycan 4 (CSPG4) (human, UniProt Q6UVK1 30-2322, carries chondroitin sulfate (CS) glycosaminoglycan chains)", "T1 construct": "whole, on cells; also called High Molecular Weight Melanoma Associated Antigen; Melanoma Chondroitin Sulfate Proteoglycan", "T1 sequence (Q6UVK1 30-2322)": "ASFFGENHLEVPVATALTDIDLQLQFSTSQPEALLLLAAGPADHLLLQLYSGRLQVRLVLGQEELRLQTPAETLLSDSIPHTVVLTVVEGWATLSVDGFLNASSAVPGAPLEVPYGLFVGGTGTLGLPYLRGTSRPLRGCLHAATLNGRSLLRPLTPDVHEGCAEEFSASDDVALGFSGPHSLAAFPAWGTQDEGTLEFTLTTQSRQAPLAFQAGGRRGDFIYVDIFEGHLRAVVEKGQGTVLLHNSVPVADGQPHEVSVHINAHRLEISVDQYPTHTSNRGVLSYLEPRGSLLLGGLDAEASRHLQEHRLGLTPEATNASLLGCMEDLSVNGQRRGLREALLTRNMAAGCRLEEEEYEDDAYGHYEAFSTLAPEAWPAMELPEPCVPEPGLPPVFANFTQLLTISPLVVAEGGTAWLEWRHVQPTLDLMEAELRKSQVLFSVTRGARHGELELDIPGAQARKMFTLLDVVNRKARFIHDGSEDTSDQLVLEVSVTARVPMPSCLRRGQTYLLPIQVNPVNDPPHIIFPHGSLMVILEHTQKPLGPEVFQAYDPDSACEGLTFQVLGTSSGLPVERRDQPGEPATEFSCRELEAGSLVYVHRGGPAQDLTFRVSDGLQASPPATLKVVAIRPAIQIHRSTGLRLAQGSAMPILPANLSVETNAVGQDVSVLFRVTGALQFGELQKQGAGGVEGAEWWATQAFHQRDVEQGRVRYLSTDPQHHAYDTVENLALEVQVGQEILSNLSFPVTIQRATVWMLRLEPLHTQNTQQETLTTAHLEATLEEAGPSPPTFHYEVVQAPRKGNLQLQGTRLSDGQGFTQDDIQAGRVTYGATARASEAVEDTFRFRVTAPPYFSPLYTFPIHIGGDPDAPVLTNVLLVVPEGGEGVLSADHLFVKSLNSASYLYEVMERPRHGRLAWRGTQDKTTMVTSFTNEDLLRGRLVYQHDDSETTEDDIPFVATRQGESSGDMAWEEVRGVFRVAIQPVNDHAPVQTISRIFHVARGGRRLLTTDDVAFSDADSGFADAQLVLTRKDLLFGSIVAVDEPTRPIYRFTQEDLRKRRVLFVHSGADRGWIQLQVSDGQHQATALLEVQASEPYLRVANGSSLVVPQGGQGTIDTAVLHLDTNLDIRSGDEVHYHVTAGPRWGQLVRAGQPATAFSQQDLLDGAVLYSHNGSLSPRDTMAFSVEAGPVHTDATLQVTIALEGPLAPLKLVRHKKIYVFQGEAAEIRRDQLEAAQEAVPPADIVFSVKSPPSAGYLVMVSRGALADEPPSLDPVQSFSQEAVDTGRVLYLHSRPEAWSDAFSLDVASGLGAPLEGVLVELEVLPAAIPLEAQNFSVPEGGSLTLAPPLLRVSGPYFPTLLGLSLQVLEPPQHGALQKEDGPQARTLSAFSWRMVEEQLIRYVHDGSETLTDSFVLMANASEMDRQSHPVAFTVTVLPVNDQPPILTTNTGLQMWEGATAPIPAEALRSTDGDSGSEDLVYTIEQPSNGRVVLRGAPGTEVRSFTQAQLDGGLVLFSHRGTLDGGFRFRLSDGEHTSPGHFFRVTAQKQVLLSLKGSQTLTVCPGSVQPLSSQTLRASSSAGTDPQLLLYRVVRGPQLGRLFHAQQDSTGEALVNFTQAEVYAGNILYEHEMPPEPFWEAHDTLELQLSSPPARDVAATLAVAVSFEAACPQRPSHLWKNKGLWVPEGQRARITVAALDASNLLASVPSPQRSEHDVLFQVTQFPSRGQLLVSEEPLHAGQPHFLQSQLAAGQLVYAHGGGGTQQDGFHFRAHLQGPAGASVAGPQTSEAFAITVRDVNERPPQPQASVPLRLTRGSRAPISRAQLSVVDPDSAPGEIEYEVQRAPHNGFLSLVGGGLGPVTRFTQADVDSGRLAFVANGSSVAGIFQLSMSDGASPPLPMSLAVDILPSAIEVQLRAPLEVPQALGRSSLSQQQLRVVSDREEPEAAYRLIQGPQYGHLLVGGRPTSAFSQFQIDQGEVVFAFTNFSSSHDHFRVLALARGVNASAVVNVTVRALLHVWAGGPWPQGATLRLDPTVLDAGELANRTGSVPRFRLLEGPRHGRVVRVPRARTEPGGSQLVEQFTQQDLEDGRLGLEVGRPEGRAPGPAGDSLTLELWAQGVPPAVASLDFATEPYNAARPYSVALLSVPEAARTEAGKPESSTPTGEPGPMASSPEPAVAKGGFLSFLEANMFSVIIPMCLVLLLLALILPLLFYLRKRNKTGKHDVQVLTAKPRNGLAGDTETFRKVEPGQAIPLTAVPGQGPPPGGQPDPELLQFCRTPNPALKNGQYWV", "assay": "flow cytometry, recombinant P-selectin/Fc on M14-CSPG4 versus mock-transfected M14 cells", "description": "Briefly, cells were incubated with mAb or P-selectin/Fc, washed and stained with FITC-conjugated anti-mouse IgM or anti-human IgG prior to binding detection by flow cytometry. R-phycoerythrin-conjugated polyclonal goat anti-mouse F(ab′)₂ was used as secondary for detection of anti-CSPG4 binding.", "data": [{"binder": "recombinant human P-selectin/Fc (human IgG) (Fc fusion, UniProt P16109 42-771, looked up, Bought reagent (R&D Systems); also called recombinant P-selectin; not shown: Fc of human IgG) WTYHYSTKAYSWNISRKYCQNRYTDLVAIQNKNEIDYLNKVLPYYSSYYWIGIRKNNKTWTWVGTKKALTNEAENWADNEPNNKRNNEDCVEIYIKSPSAPGKWNDEHCLKKKHALCYTASCQDMSCSKQGECLETIGNYTCSCYPGFYGPECEYVRECGELELPQHVLMNCSHPLGNFSFNSQCSFHCTDGYQVNGPSKLECLASGIWTNKPPQCLAAQCPPLKIPERGNMTCLHSAKAFQHQSSCSFSCEEGFALVGPEVVQCTASGVWTAPAPVCKAVQCQHLEAPSEGTMDCVHPLTAFAYGSSCKFECQPGYRVRGLDMLRCIDSGHWSAPLPTCEAISCEPLESPVHGSMDCSPSLRAFQYDTNCSFRCAEGFMLRGADIVRCDNLGQWTAPAPVCQALQCQDLPVPNEARVNCSHPFGAFRYQSVCSFTCNEGLLLVGASVLQCLATGNWNSVPPECQAIPCTPLLSPQNGTMTCVQPLGSSSYKSTCQFICDEGYSLSGPERLDCTRSGRWTDSPPMCEAIKCPELFAPEQGSLDCSDTRGEFNVGSTCHFSCDNGFKLEGPNNVECTTSGRWSATPPTCKGIASLPTPGVQCPALTTPGQGTMYCRHHPGTFGFNTTCYFGCNAGFTLIGDSTLSCRPSGQWTAVTPACRAVKCSELHVNKPIAMNCSNLWGNFSYGSICSFHCLEGQLLNGSAQTACQENGHWSTTVPTCQAGPLTIQEA", "values": [{"measurement": "binding result", "value": "binds"}]}]}
